Laboratory results from patent publication US11732029B2, “Methods and compositions for the treatment of wounds” (The University of Chicago, priority 2017, dated 2023).
Entries after “also recorded” stand apart in the source; their conditions may differ.

How the values were obtained:
VEGF-A165 [1] = biological target: T1, VEGF-A165 (Homo sapiens, UniProt P15692); assay: Surface plasmon resonance, vWF against GF; assay type: binding; conditions: SPR; vWF immobilized; 1:1 Langmuir fit, single KD; read-out: dissociation constant (KD value) for VEGF-A165
T1 construct: All growth factors (GFs) and chemokines were purchased in their mature forms; purchased PeproTech; host or cells: Escherichia coli
T1 sequence (P15692 27-191 isoform P15692-4 limits assumed): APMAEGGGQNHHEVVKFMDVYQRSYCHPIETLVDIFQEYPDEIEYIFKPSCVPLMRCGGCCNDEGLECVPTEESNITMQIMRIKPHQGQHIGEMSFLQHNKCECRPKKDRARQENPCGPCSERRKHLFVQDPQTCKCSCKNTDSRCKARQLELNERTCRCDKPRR
Description: (§1) SPR assays were performed as described previously2. In brief, measurements were made with a Biacore X100 SPR system or Biacore 3000 SPR system (GE Healthcare). Plasma-derived vWF was immobilized via amine coupling on a C1 chip (GE Healthcare) for 2000 resonance units (RU) according to the manufacturer's instructions. Recombinant human VEGF-A165, VEGF-A121, or PDGF-BB was flowed at increasing concentrations in the running buffer at 30 μL/min. The sensor chip was regenerated with glycine at pH 2 for every cycle. Specific binding of GFs to vWF was calculated automatically using the response to a non-functionalized channel as a reference. Binding curves were fitted using BIAevalution software (GE Healthcare). vWF-VEGF-A165 binding results were fitted with Langmuir binding kinetics (1:1 binding with drifting baseline Rmax local). vWF-PDGF-BB binding results were fitted with heterogeneous ligand-parallel reaction.

VEGF-A121 = biological target: T2, VEGF-A121 (Homo sapiens, UniProt P15692); assay: Surface plasmon resonance, vWF against GF; assay type: binding; design: All growth factors (GFs) and chemokines were purchased in their mature forms; purchased PeproTech; host or cells: Escherichia coli; conditions: vWF immobilized, VEGF-A121 50-800 nM
T2 sequence (P15692 27-147 isoform P15692-9 limits assumed): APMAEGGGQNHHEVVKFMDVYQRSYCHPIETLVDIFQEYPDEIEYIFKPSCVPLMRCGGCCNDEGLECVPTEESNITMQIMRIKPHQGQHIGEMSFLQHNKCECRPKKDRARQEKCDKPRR
Description: as §1

FGF-7 = biological target: T3, FGF-7 (Homo sapiens, UniProt P21781); assay: vWF binding to recombinant GFs (ELISA); conditions: VEGF-A121 signal as baseline
T3 construct: All GFs and chemokines were purchased in their mature forms; purchased PeproTech; host or cells: Escherichia coli
T3 sequence (P21781 32-194): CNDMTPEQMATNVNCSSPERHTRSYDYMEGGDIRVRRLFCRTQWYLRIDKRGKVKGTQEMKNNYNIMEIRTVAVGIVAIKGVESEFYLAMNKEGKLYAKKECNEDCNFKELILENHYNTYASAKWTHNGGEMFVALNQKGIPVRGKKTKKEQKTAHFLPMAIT
Description: (§2) ELISA tests were performed as previously reported1. In brief, ELISA plates (med-binding, Greiner Bio-One) were coated with 50 nM GFs at 37° C. for 2 hrs. After blocking with 2% BSA solution containing PBS-T, 1 μg/mL of plasma-derived vWF (EMD Millipore) was added. Bound vWF was detected with 1 μg/mL of rabbit anti-human vWF antibody (Sino Biological). Then, HRP conjugated goat anti-rabbit antibody (Jackson ImmunoResearch) was added. After 60 min of incubation, 50 μL TMB substrate (Sigma-Aldrich) was added. The reaction was stopped by adding 25 μL of 2N H2SO4. Subsequently, the absorbance at 450 nm was measured and subtracted the absorbance at 570 nm.

PDGF-CC = biological target: T4, PDGF-CC (Homo sapiens, UniProt Q9NRA1); assay: vWF binding to recombinant GFs (ELISA); conditions: VEGF-A121 signal as baseline
T4 construct: All GFs and chemokines were purchased in their mature forms; purchased PeproTech; host or cells: Escherichia coli
Description: as §2

TGF-β3 = biological target: T5, TGF-β3 (Homo sapiens, UniProt P10600); assay: vWF binding to recombinant GFs (ELISA); conditions: VEGF-A121 signal as baseline
T5 construct: All GFs and chemokines were purchased in their mature forms; purchased PeproTech; host or cells: eukaryotic cells (not specified)
T5 sequence (P10600 301-412 limits assumed): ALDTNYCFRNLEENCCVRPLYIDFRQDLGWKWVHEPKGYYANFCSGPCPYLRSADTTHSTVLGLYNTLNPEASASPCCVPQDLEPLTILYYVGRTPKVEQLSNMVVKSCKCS
Description: as §2

IGF-II = biological target: T6, IGF-II (Homo sapiens, UniProt P01344); assay: vWF binding to recombinant GFs (ELISA); conditions: VEGF-A121 signal as baseline
T6 construct: All GFs and chemokines were purchased in their mature forms; purchased PeproTech; host or cells: Escherichia coli
Description: as §2

PDGF-DD = biological target: T7, PDGF-DD (Homo sapiens, UniProt Q9GZP0); assay: vWF binding to recombinant GFs (ELISA); conditions: VEGF-A121 signal as baseline
T7 construct: All GFs and chemokines were purchased in their mature forms; purchased PeproTech; host or cells: eukaryotic cells (not further specified)
Description: as §2

FGF-18 = biological target: T8, FGF-18 (Homo sapiens, UniProt O76093); assay: vWF binding to recombinant GFs (ELISA); conditions: VEGF-A121 signal as baseline
T8 construct: All GFs and chemokines were purchased in their mature forms; purchased PeproTech; host or cells: Escherichia coli
T8 sequence (O76093 28-207): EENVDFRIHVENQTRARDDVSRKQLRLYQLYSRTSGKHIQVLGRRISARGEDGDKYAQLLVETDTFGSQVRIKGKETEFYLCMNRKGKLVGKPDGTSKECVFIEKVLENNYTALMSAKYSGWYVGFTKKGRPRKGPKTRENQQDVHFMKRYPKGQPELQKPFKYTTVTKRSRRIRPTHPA
Description: as §2

CXCL-12γ = biological target: T9, CXCL-12γ (Homo sapiens, UniProt P48061); assay: vWF binding to recombinant GFs (ELISA); conditions: VEGF-A121 signal as baseline
T9 construct: All GFs and chemokines were purchased in their mature forms; purchased R & D Systems; host or cells: Escherichia coli
Description: as §2

CXCL-12α = biological target: T10, CXCL-12α (Homo sapiens, UniProt P48061); assay: vWF binding to recombinant GFs (ELISA); conditions: VEGF-A121 signal as baseline
T10 construct: All GFs and chemokines were purchased in their mature forms; purchased PeproTech; host or cells: Escherichia coli
Description: as §2

VEGF-A165 [2] = biological target: T1, VEGF-A165; assay: vWF binding to recombinant GFs (ELISA); conditions: VEGF-A121 signal as baseline
Description: as §2

β-NGF = biological target: T11, β-NGF (Homo sapiens, UniProt P01138); assay: vWF binding to recombinant GFs (ELISA); conditions: VEGF-A121 signal as baseline
T11 construct: All GFs and chemokines were purchased in their mature forms; purchased PeproTech; host or cells: Escherichia coli
Description: as §2

EGF = biological target: T12, EGF (Homo sapiens, UniProt P01133); assay: vWF binding to recombinant GFs (ELISA); conditions: VEGF-A121 signal as baseline
T12 construct: All GFs and chemokines were purchased in their mature forms; purchased PeproTech; host or cells: Escherichia coli
Description: as §2

CXCL-11 = biological target: T13, CXCL-11 (Homo sapiens, UniProt O14625); assay: vWF binding to recombinant GFs (ELISA); conditions: VEGF-A121 signal as baseline
T13 construct: All growth factors (GFs) and chemokines were purchased in their mature forms; purchased PeproTech; host or cells: Escherichia coli
T13 sequence (O14625 22-94): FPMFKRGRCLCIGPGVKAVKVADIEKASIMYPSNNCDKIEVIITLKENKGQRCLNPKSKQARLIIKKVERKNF
Description: as §2

NT-3 = biological target: T14, NT-3 (Homo sapiens, UniProt P20783); assay: vWF binding to recombinant GFs (ELISA); conditions: VEGF-A121 signal as baseline
T14 construct: All GFs and chemokines were purchased in their mature forms; purchased PeproTech; host or cells: Escherichia coli
T14 sequence (P20783 139-257): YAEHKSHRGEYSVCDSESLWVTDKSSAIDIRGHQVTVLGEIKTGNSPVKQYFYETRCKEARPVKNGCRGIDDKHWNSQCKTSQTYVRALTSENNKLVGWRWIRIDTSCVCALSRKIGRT
Description: as §2

PDGF-AA = biological target: T15, PDGF-AA (Homo sapiens, UniProt P04085); assay: vWF binding to recombinant GFs (ELISA); conditions: VEGF-A121 signal as baseline
T15 construct: All GFs and chemokines were purchased in their mature forms; purchased PeproTech; host or cells: Escherichia coli
Description: as §2

T9 sequence (P48061 22-119 isoform P48061-3): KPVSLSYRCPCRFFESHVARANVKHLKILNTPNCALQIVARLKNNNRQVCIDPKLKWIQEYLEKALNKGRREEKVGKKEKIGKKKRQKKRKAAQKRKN
T11 sequence (P01138 122-241, species assumed): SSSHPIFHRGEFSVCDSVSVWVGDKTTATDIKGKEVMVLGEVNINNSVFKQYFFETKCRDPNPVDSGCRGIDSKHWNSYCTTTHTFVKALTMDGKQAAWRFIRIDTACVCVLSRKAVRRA
T10 sequence (P48061 22-89 limits assumed): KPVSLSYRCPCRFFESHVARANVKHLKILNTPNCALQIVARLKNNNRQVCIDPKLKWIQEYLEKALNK
T7 sequence (Q9GZP0 250-370 limits assumed): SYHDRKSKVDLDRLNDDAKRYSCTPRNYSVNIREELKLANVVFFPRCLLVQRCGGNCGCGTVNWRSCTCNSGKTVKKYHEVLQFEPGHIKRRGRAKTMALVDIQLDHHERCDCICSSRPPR
T12 sequence (P01133 971-1023 limits assumed): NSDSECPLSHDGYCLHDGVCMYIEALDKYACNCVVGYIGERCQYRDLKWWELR
T4 sequence (Q9NRA1 235-345 limits assumed): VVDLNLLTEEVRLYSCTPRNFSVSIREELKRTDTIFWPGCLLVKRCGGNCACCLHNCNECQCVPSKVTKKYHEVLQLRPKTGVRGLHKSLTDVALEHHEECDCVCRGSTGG

Substance: vWF: human plasma-derived von Willebrand factor (EMD Millipore)
- Kd (VEGF-A165 [1]): 27 nM
- binding to VEGF-A121 by SPR (VEGF-A121): did not show significant binding; also recorded: No binding was observed
- vWF binding to FGF-7 (FGF-7): bound
- vWF binding to PDGF-CC (PDGF-CC): bound
- vWF binding to TGF-β3 (TGF-β3): not
- vWF binding to IGF-II (IGF-II): Neither insulin-like growth factor-I (IGF-I) nor IGF-II bound
- vWF binding to PDGF-DD (PDGF-DD): bound
- vWF binding to FGF-18 (FGF-18): bound
- vWF binding to CXCL-12γ (CXCL-12γ): strong binding signal
- vWF binding to CXCL-12α (CXCL-12α): did not
- vWF binding to VEGF-A165 (VEGF-A165 [2]): bound
- vWF binding to β-NGF (β-NGF): relevant binding
- vWF binding to EGF (EGF): did not show binding
- vWF binding to CXCL-11 (CXCL-11): bound
- vWF binding to NT-3 (NT-3): relevant binding
- vWF binding to PDGF-AA (PDGF-AA): bound
